Test results: article PMC11998487 (2025)

Molecular target: T1, EV71-VP1-His (enterovirus 71 (EV71), UniProt Q66478 566-862, RED-tris-NTA dye on the His tag (in the MST only))
T1 chain: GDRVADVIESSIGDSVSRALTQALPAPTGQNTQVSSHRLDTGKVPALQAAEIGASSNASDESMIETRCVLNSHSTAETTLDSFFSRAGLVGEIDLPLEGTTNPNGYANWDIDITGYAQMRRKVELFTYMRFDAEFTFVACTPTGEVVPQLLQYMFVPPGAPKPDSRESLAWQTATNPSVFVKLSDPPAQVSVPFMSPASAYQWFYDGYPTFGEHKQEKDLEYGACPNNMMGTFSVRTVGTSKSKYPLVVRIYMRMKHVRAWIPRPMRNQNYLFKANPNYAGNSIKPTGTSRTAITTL
Assay: MST

B1: ZYG11B 1–58-GST (domain or fragment)
chain: MPEDQAGAAMEEASPYSLLDICLNFLTTHLEKFCSARQDGTLCLQEPGVFPQEVADRL
Kd: 5.55 µM
